Source: article doi:10.1101/664102
“And” between values parts separate entries of the source, which are not always exact repeats. Identical values can stand only once.

Assays:
Assay in all cases: fluorescence polarisation
[1] = target: fluorescein-labeled CaV1.2 IQ peptide WT (residues 1644-1666) (rat)
[2] = target: fluorescein-labeled CaV1.2 IQ peptide K1662E (rat)
[3] = target: fluorescein-labeled CaV1.2 IQ peptide K1647A (rat)
[4] = target: fluorescein-labeled CaV1.2 IQ peptide K1647E (rat)
[5] = target: fluorescein-labeled CaV1.2 IQ peptide WT (residues 1644-1666) (rat); remark: listed apart in the source

## apoCaM mutant E88K (from UniProt P0DP33 3-149) (natural protein)
[1]
  fold decrease in binding affinity against the WT pair: > 5 fold

## Ca2+-free calmodulin (apoCaM) (from UniProt P0DP33 1-149) (natural protein)
[2]
  fold decrease in binding affinity against the WT pair: > 5 fold
[1]
  Kd: 10 µM and 2.6 µM

## apoCaM mutant F90A (from UniProt P0DP33 3-149) (natural protein)
[1]
  fold decrease in binding affinity against WT apoCaM: 3.3 fold

B1: α-actinin-1_EF34 (residues 822-892) (domain or fragment)
chain: DTDTADQVMASFKILAGDKNYITMDELRRELPPDQAEYCIARMAPYTGPDSVPGALDYMSFSTALYGESDL
[3]
  fold increase of Kd against the WT IQ peptide: 5 fold
[4]
  fold increase of Kd against the WT IQ peptide: 5 fold

B2: α-actinin-1_EF34 mutant E847K/E851K (domain or fragment)
chain: DTDTADQVMASFKILAGDKNYITMDKLRRKLPPDQAEYCIARMAPYTGPDSVPGALDYMSFSTALYGESDL
[5]
  fold increase of Kd against WT α-actinin-1 EF3/4: 12 fold

B3: α-actinin-1 EF3/4 mutant F833A (domain or fragment)
chain: DTDTADQVMASAKILAGDKNYITMDELRRELPPDQAEYCIARMAPYTGPDSVPGALDYMSFSTALYGESDL
[5]
  fold decrease in binding affinity against WT α-actinin-1 EF3/4: 8 fold
